Measured values: publication PMC4259493
pKd: −log10 of the molar value. Read-outs that look alike come from different tables or passages of the source.

Tests used:
Test in all cases: MST
[1] = biological target: α-actinin-2 calmodulin-like domain (CAMD, EF1-4) (human)
[2] = biological target: α-actinin-2 wild-type, full length (human) (UniProt P35609)
[3] = biological target: α-actinin-2 wild-type, full length (human) (UniProt P35609); remark: listed apart in the source

Sequence of α-actinin-2 wild-type, full length (human) (P35609 whole entry): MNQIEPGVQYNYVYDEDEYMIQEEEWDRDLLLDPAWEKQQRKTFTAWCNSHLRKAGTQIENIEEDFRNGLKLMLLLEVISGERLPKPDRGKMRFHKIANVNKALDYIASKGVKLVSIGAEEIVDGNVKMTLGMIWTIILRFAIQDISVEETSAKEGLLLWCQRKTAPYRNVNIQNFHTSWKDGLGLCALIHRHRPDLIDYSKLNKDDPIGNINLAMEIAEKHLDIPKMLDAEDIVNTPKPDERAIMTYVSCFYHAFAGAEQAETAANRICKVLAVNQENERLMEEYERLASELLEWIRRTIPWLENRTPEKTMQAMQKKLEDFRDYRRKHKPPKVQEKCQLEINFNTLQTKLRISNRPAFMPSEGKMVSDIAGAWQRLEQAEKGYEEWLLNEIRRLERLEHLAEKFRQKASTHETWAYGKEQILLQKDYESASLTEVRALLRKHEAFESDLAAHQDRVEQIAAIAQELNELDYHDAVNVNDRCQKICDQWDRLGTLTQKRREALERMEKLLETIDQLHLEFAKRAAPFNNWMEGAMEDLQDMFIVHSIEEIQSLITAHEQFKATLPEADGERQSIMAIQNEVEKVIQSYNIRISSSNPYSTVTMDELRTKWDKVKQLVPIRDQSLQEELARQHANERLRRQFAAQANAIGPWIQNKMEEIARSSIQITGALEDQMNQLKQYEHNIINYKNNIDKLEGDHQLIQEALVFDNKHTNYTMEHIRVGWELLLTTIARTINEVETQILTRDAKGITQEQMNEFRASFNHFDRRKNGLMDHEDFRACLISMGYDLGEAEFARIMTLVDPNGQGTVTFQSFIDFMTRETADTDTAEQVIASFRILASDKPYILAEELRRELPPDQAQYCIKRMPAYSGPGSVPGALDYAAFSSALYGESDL
Sequence of α-actinin-2 calmodulin-like domain (CAMD, EF1-4) (human) (P35609 whole entry, the tested form may be a part): as the sequence (P35609 whole entry) above
Sequence of titin Zr-7 construct (amino acids Lys 692 - Arg 740) (Q8WZ42 692-740): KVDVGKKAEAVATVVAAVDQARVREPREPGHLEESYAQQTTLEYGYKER

With “titin Zr-7 construct (amino acids Lys 692 - Arg 740) (from UniProt Q8WZ42 692-740) (domain or fragment)” the pKd [1] was 6.62, the pKd [2] was 5.54 and the pKd [3] was 6.42.
